In paper PMC12523770:

Target: MyD88 (myeloid differentiation primary response 88), endogenous in mouse bone marrow-derived macrophages (mouse (endogenous in BMDMs)), P22366
Experiment: cross-linking; WT BMDMs stimulated with 1 µg/mL poly(I:C) for the indicated times (or primed with LPS, positive control); cleared freeze-thaw lysate with 2 mM DSS, 2 h, room temperature; SDS-PAGE, anti-MyD88 blot
Conditions: remark: other sources report otherwise

B1: MyD88 (myeloid differentiation primary response 88), endogenous in mouse bone marrow-derived macrophages, P22366 1-296 (natural protein)
chain: MSAGDPRVGSGSLDSFMFSIPLVALNVGVRRRLSLFLNPRTPVAADWTLLAEEMGFEYLEIRELETRPDPTRSLLDAWQGRSGASVGRLLELLALLDREDILKELKSRIEEDCQKYLGKQQNQESEKPLQVARVESSVPQTKELGGITTLDDPLGQTPELFDAFICYCPNDIEFVQEMIRQLEQTDYRLKLCVSDRDVLPGTCVWSIASELIEKRCRRMVVVVSDDYLQSKECDFQTKFALSLSPGVQQKRLIPIKYKAMKKDFPSILRFITICDYTNPCTKSWFWTRLAKALSLP
  stoichiometry N: 2
